Measured values: patent publication US20180224459A1
Blank lines part the entries; values can stand above or below the substance they belong to.

Key:
[1] = target: HA-mSA2-BC2T-myc fusion displayed on yeast at the C-terminus of Aga2 (yeast) (UniProt P32781); test: flow cytometry, induced yeast displaying HA-mSA2-BC2T-myc; co-treatment with HA-ab-FITC; mean of triplicate
[2] = target: HA-mSA2-BC2T-myc fusion displayed on yeast at the C-terminus of Aga2 (yeast) (UniProt P32781); test: flow cytometry, induced yeast displaying HA-mSA2-BC2T-myc; co-treatment with Myc-ab-FITC; mean of triplicate
[3] = target: HA-mSA2-BC2T-myc fusion displayed on yeast at the C-terminus of Aga2 (yeast) (UniProt P32781); test: flow cytometry, induced yeast displaying HA-mSA2-BC2T-myc; mean of triplicate
[4] = target: BC2T-mSA2-myc displayed on E. coli as a fusion to OmpX; test: flow cytometry, induced E. coli displaying BC2T-mSA2-myc; mean of triplicate
[5] = target: BC2T-mSA2-myc displayed on E. coli as a fusion to OmpX; test: flow cytometry, induced E. coli displaying BC2T-mSA2-myc; co-treatment with Myc-ab-FITC; mean of triplicate
[6] = target: Green Fluorescent Protein (GFP), biotinylated and immobilized on streptavidin coated plates [GFP: P42212]; test: competition ELISA on immobilized GFP; 1:1 mixture with GFPnb-BC2T as competitor, against GFPnb-BC2T alone; BC2nb-nLuc read-out

Cy5 (+) [1]: 71.2%
Cy5 (+) [2]: 70.9%
Cy5 (+) [3]: 71.1%
Cy5 (+) [4]: 98.6%
Cy5 (+) [5]: 98.7%
Substance: BC2 nanobody-Cy5 conjugate (VHH)

FITC or GFP (+) [3]: 59.6%
FITC or GFP (+) [4]: 98.1%
Substance: BC2 nanobody-GFP fusion protein (from UniProt P42212 1-238) (VHH)

decrease in luminescence [6]: 50%
Substance: GFP-binding nanobody-His6 fusion protein (VHH)
